Experimental data published in patent US12616711B2, “Therapeutic dendrimer” (Starpharma Pty Ltd, priority 2019, dated 2026).

Legend:
[1] = Gemcitabine release from dendrimers in PBS; type: physicochemical; details: PBS pH 7.4, 37° C.
Method: (§1) A study was carried out to determine the rate of gemcitabine release from dendrimer compounds in PBS and citrate buffer. Gemcitabine-conjugated dendrimers of the present disclosure, and a comparative example dendrimer, were each dissolved in PBS Buffer (2 mL, 10 mM, pH 7.4) or Citrate Buffer (2 mL, 0.1 M, pH 4.5) and held at 37° C. Samples were then analysed by injecting 5 μL of the solution on HPLC. At various time points, samples were analysed by HPLC. HPLC (C8 XBridge, 3×100 mm), gradient: 5% ACN/H2O (0-1 min), 5-80% ACN (1-7 min), 80% ACN (7-12 min), 80-5% ACN (12-13 min), 5% ACN (13-15 min), 243 nm, 10 mM ammonium formate buffer, 0.4 mL/min.

[2] = Plasma release study; type: in vitro ADME; details: 37° C.
Method: The plasma was placed in a CO2 incubator at 3% CO2 at 42% relative humidity to reach a pH of 7.4.
Gemcitabine HCl (28.5 mg) was dissolved in Milli Q water and the resulting stock solution transferred to a 5 mL volumetric flask and diluted to provide working standard solutions.
The plasma release study was conducted by adding 1 mL of plasma (centrifuged and filtered) to 0.2 mL of dendrimer solution (approximately 2 mg/mL gemcitabine equivalent in miliQ water) for example dendrimers and a comparator. The mixtures were vortexed (30 sec) then incubated at 37° C. 5% CO2. At various timepoints aliquots (0.1 mL) were removed and added to ACN (0.2 mL). The resulting mixtures were vortexed (30 s), centrifuged (10 min, 4° C.), filtered and analysed by HPLC (C8 Xbridge, 3×100 mm, […], 0.4 mL/min., gradient: 5% ACN/H2O) (0-1 min), 5-80% ACN (1-7 min), 80% ACN (7-12 min), 80-5% ACN (12-13 min), 5% ACN (13-15 min), 100 mM ammonium formate buffer, column temperature 50° C., sample tray 4° C., 260 nm.

[3] = tested on: H460 cells; assay: alamarBlue viability assay, GI50; type: cell-based; details: 72 h, given in μM Gemcitabine
Method: (§2) A study was carried out to determine the ability of example dendrimers to inhibit growth of cancer cell lines using an alamarBlue viability assay (Thermo Fisher, DAL1025).
(§3) The cytotoxicity of compounds toward MDA-MB-231, A549, H460, BxPC3 and CAPAN-1 cells were evaluated for viability. Cells were seeded at a density of 1.2-5×10^3 cells, dependent on cell growth rate, in 96 well plates and incubated overnight. Cells were then treated with serial dilutions of test compositions for 72 h (MDA-MB-231, A549 and H460 lines) or 144 h (BxPC3 and CAPAN-1 lines). For cell viability analysis, 10% media volume of alamar Blue was added during the final 6-8 h of incubation. Reduction of alamarBlue in living cells yields a red fluorescent metabolite that can be read on a plate reader (560 nm excitation/610 nm emission.). Cell viability and subsequent GI50 values were was determined from the blank corrected dose-response curves, with 4-parameter nonlinear curve fit, in GraphPad Prism.

[4] = tested on: BxPC3 cells; assay: alamarBlue viability assay, GI50; type: cell-based; details: BxPC-3; 144 h; given in μM Gemcitabine
Method: as §2, §3

[5] = tested on: CAPAN-1 tumour xenografts; assay: CAPAN-1 mouse xenograft, two conjugates (Example 14); type: in vivo; details: 3 at 6 mg/kg weekly, 6 at 5 mg/kg weekly, Gemcitabine 120 mg/kg twice weekly, 3 weeks i.v.
Method: A CAPAN-1 (human pancreatic adenocarcinoma cell line) mouse xenograft pancreatic cancer model was used to assess the anti-tumour efficacy properties of 3 and 6. NSG (NOD-SCID Interleukin-2 receptor gamma chain null) mice were inoculated and tumours sized as described above. On day 24 after implantation, mice with similar sized tumours (mean tumour volume 100 mm^3) were randomised into four groups of 10 animals for each tumour type. Gemcitabine, 3 and 6 were prepared as described above.
Gemcitabine was administered twice weekly and dendrimers were administered weekly for 3 weeks via tail vein i.v. injection, at 0.1 ml/10 g body weight.

[6] = tested on: OVCAR-3 (human Ovarian Carcinoma cell line) mouse xenograft; assay: OVCAR-3 mouse xenograft, alone or with Carboplatin (Example 16); type: in vivo; details: 3 at 4 mg/kg and 6 mg/kg weekly; Carboplatin 40 mg/kg weekly in combination; 3 weeks i.v.
Method: An OVCAR-3 (human Ovarian Carcinoma cell line) mouse xenograft cancer model was used to assess the anti-tumour efficacy properties of 3 alone or in combination with Carboplatin, compared to Gemcitabine, alone or in combination with Carboplatin. NSG Mice were inoculated and tumours sized as described above. On day twenty nine after implantation, mice with similar sized tumours (mean tumour volume 100 mm^3) were randomised into 10 groups of 10 animals. Gemcitabine and 3 were prepared as described above. DBLCarboplatin (Hospira) was dissolved in saline solution and further diluted in 5% glucose immediately prior to dosing.
Gemcitabine was administered twice weekly and dendrimers and carboplatin were administered weekly for 3 weeks via tail vein i.v. injection, at 0.1 ml/10 g body weight.

[7] = Gemcitabine release from dendrimers in citrate buffer; type: physicochemical; details: Citrate Buffer pH 4.5, 37° C.
Method: as §1

[8] = tested on: A549 tumour xenografts; assay: A549 lung adenocarcinoma mouse xenograft (Example 15); type: in vivo; details: 3 at 6 mg/kg weekly, Gemcitabine 120 mg/kg twice weekly, 3 weeks i.v.
Method: A A549 (human adenocarcinomic human alveolar basal epithelial) cell line was used to assess the anti-tumour efficacy properties of 3. NSG mice were inoculated and tumours sized as described above. On day 30 after implantation, mice with similar sized tumours (mean tumour volume 100 mm^3) were randomised into four groups of 10 animals for each tumour type. Gemcitabine and 3 were prepared as described above.
Gemcitabine was administered twice weekly and dendrimer was administered weekly for 3 weeks via tail vein i.v. injection, at 0.1 ml/10 g body weight.

[BHA Lys][Lys]30[Lys]32 [Compound 3, [BHA Lys][Lys]30[Lys]32 [(α-NH-TDA-Gemcitabine)32 (ε-NHPEG˜2100)32]]
% Gemcitabine released in PBS ([1]; 0 h): 0% | % Gemcitabine released in PBS ([1]; 0.08 h): 3.95% | % Gemcitabine released in PBS ([1]; 2 h): 11.23% | % Gemcitabine released in PBS ([1]; 4 h): 16.6% | % Gemcitabine released in PBS ([1]; 6 h): 21.99% | % Gemcitabine released in PBS ([1]; 8 h): 25.64% | % Gemcitabine released in PBS ([1]; 10 h): 30.03% | % Gemcitabine released in PBS ([1]; 12 h): 33.17% | % Gemcitabine released in PBS ([1]; 24 h): 46.36% | % Gemcitabine released in PBS ([1]; 26 h): 48.07% | % Gemcitabine released in PBS ([1]; 28 h): 51.24% | % Gemcitabine released in PBS ([1]; 30 h): 53.41% | % Gemcitabine released in PBS ([1]; 32 h): 54.48% | % Gemcitabine released in PBS ([1]; 34 h): 55.8% | % Gemcitabine released in PBS ([1]; 36 h): 57.52% | Human Plasma % release ([2]; 0 h): 1.81% | Human Plasma % release ([2]; 2 h): 3.73% | Human Plasma % release ([2]; 4 h): 6.31% | Human Plasma % release ([2]; 6 h): 17.74% | Human Plasma % release ([2]; 24 h): 34.83% | Human Plasma % release ([2]; 30 h): 37.86% | GI50 [3]: 0.077 µM | GI50 [4]: 0.008 µM | anti-tumour efficacy compared to other groups (FIG. 7) [5]: significantly more effective than Gemcitabine or 6 | anti-tumour efficacy compared to other groups (FIG. 9) [6]: more effective than Gemcitabine | % Gemcitabine released in citrate buffer ([7]; 0 h): 0% | % Gemcitabine released in citrate buffer ([7]; 0.08 h): 4.42% | % Gemcitabine released in citrate buffer ([7]; 2 h): 5.21% | % Gemcitabine released in citrate buffer ([7]; 4 h): 5.51% | % Gemcitabine released in citrate buffer ([7]; 6 h): 4.92% | % Gemcitabine released in citrate buffer ([7]; 8 h): 5.61% | % Gemcitabine released in citrate buffer ([7]; 10 h): 5.39% | % Gemcitabine released in citrate buffer ([7]; 12 h): 5.94% | % Gemcitabine released in citrate buffer ([7]; 24 h): 7.53% | % Gemcitabine released in citrate buffer ([7]; 26 h): 7.52% | % Gemcitabine released in citrate buffer ([7]; 28 h): 7.75% | % Gemcitabine released in citrate buffer ([7]; 30 h): 7.71% | % Gemcitabine released in citrate buffer ([7]; 32 h): 7.48% | % Gemcitabine released in citrate buffer ([7]; 34 h): 7.72% | % Gemcitabine released in citrate buffer ([7]; 36 h): 8.19% | anti-tumour efficacy compared to Gemcitabine (FIG. 8) [8]: more effective than Gemcitabine
